Patent US20230031853A1

Tests used:
splitGFP(1-10) [1] = test: in vitro splitGFP complementation, fluorescence; reference pAbBD-S11
splitGFP(1-10) [2] = test: cell-based or functional assay

Substance | fluorescence relative to pAbBD-S11 (splitGFP(1-10) [1]) | fold-increase in median splitGFP fluorescence, flow cytometry 6 hours after electroporation into HEK293T splitGFP(1-10) cells (splitGFP(1-10) [2])
Ritux-(pAbBD-S11)2 (antibody) | 2 fold | 39.4 fold
pAbBD-S11 |  | 33.5 fold
